The series deals with T1, CdtA-CdtC heterodimer.
T1 chain 1: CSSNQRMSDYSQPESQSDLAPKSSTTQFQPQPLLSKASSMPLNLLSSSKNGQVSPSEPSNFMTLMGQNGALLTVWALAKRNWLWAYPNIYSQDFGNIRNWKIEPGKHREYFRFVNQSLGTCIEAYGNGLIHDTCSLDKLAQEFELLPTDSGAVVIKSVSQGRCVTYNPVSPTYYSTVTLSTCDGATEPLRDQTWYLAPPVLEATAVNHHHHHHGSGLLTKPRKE
T1 chain 2: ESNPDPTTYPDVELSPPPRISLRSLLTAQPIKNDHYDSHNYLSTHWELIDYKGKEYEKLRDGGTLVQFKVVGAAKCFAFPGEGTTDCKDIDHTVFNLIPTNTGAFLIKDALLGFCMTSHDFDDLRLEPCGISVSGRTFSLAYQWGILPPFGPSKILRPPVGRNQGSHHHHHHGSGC

B1: CdtB/DNase I hybrid protein (protein)
chain: NLSDFKVATWNLQGSSAVNESKWNINVRQLLSGEQGADILMVQEAGSLPSSAVRTSRVIQHGGTPIEEYTWNLGTRSRPNMVYIYYSRLDVGANRVNLAIVSRRQADEAFIVHSDSSVLQSRPAVGIRIGTDVFFTVHAAPGDAVAEIDALYDVYLDVQEKWGLEDVMLMGDFNAGCSYVRPSQWSSIRLWTSPTFQWLIPDSADTTATPTHCAYDRIVVAGMLLRGAVVPDSALPFNFQAANGLSDQLAQAISDHYPVEVMLKHHHHHHHMLEDPAANKAQKK
For B1, the “DNA nicking activity of reconstituted heterotrimer preparations (subunit protection)” value was “reconstituted heterotrimer preparations containing the CdtB/DNase I hybrid protein failed to convert supercoiled DNA to linear and relaxed forms”.

Source of the values: patent US20150291667A1.
